Where “and” joins values, the source holds several entries; their conditions need not be identical. Identical values can stand only once. Like-named read-outs stand apart in the source and are kept apart here.
What was measured:
[1] = molecular target: T1, N-type calcium channels (IMR-32 neuroblastoma cells) (Homo sapiens, UniProt Q00975); assay: cell-based
T1 construct: host or cells: IMR-32 (differentiated)

[2] = molecular target: class A (P/Q) calcium channels (Oryctolagus cuniculus, UniProt P27884); assay: Two-electrode voltage clamp of barium currents in Xenopus oocytes expressing class A alpha-1 subunits; settings: 4 mM barium
Protocol: In these experiments, barium currents (4 mM barium, no added calcium, in medium) through the calcium channels were measured for technical reasons, in accordance with methods known in the art.
The cRNA for the alpha-1 subunit described in Mori et al. (1991) was expressed in Xenopus oocytes by standard methods (Goldin, 1992). For expression, cRNA for the alpha-1 subunit was co-injected with cRNA for the rabbit alpha2 and delta (Ellis et al. 1988) and human beta (Williams et al. 1992) subunits in equimolar ratios. Approximately 50 nL was injected per oocyte, with a total cRNA concentration of 0.8 μg/μL.
Currents were recorded, by two-electrode voltage clamp using a solution of 4 mM barium chloride, 38 mM potassium chloride, 36 mM tetraethylammonium chloride, 5 mM 4-aminopyridine, 0.4 mM niflumic acid, 5 mM HEPES (pH 7.5), and 0.1 mg/mL bovine serum albumin. Data were sampled at 5 kHz and filtered at 1 kHz utilizing a OC-725B voltage-clamp amplifier. (Warner Instruments) interfaced to PCLAMP software (Axon Instruments, Foster City, Calif.) for acquisition and analysis. Leak and capacitance currents were subtracted on-line using a P/4 protocol. Voltage pulses to 0 mV from a holding potential of −80 mV were used to elicit currents every 10 s.

[3] = molecular target: class B voltage-gated calcium channel (human alpha-1B subunit) stably expressed in S3 cells (HEK 293) (human) (UniProt Q00975); assay: cell-based or functional assay
[4] = molecular target: T2, class E calcium channels (192C cells) (Homo sapiens, UniProt Q15878); type: cell-based
T2 construct: expressed in transfected cells; host or cells: HEK 293 (192C cells)

DBA/2 mice = settings: mouse, in vivo
class E calcium channels = class E calcium channels (Homo sapiens, UniProt Q15878); assay: Class E channel blocking, summary statements (two separate measures of channel blocking activity); type: cell-based; settings: no method given
[5] = molecular target: L-type calcium channels of GH3 cells (rat); assay: cell-based or functional assay

T1 sequence (Q00975 whole entry, looked up): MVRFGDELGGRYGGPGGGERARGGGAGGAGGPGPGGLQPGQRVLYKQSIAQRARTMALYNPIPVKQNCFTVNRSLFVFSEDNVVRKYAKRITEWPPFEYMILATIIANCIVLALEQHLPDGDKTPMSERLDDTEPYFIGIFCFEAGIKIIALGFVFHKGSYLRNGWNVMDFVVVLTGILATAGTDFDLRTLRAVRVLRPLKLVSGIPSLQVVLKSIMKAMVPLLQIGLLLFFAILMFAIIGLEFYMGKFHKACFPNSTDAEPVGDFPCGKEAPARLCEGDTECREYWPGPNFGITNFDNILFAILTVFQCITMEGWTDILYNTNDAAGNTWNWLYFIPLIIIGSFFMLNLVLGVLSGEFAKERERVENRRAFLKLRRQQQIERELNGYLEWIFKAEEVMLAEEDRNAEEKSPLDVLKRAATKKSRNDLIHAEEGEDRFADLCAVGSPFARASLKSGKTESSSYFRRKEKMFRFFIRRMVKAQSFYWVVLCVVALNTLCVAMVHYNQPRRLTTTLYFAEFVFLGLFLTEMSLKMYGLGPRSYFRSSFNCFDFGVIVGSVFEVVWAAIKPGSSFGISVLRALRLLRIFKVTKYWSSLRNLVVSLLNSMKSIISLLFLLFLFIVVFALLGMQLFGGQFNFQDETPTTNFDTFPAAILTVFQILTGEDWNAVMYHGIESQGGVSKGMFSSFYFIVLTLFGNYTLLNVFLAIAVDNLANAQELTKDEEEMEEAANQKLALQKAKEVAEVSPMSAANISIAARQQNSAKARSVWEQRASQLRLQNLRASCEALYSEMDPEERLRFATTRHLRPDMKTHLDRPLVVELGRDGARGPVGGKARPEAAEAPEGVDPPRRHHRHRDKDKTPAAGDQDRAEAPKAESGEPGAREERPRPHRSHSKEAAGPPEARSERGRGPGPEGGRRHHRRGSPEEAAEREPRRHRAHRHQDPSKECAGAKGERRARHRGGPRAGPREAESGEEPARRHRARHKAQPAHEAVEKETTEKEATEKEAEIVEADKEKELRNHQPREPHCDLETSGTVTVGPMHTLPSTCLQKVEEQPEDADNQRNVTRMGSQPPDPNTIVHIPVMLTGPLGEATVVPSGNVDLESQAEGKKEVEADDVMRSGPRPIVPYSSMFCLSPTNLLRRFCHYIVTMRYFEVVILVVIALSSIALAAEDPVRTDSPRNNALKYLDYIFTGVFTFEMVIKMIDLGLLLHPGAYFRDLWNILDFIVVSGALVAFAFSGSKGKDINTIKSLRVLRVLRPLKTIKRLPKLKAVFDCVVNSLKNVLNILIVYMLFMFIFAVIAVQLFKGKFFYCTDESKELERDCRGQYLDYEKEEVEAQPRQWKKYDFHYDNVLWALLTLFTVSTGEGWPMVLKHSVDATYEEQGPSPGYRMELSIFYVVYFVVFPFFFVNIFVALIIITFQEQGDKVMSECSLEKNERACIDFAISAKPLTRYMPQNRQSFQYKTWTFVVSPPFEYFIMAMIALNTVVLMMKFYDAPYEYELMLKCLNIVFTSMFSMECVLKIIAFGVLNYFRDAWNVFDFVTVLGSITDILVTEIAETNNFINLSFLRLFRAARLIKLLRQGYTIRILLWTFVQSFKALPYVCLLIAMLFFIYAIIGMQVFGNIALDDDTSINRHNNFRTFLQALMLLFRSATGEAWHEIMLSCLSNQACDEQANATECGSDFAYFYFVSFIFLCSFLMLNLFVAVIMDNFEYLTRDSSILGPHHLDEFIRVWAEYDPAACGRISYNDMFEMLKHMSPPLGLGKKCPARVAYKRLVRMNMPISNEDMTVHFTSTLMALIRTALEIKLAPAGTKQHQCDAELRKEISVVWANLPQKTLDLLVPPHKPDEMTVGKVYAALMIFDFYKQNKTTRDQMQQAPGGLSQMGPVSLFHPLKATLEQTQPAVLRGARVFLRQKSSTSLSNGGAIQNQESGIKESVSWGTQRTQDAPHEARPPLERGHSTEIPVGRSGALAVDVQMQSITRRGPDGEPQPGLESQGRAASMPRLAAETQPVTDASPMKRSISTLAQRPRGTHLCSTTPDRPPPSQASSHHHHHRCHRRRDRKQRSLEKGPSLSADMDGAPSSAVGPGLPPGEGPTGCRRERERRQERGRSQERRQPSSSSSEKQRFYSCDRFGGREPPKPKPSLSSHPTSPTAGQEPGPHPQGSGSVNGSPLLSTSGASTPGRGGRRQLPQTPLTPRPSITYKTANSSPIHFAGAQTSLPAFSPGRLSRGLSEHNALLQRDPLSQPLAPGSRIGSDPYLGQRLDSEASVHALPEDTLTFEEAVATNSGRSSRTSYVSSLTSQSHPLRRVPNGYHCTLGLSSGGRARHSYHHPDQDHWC
T2 sequence (Q15878 whole entry): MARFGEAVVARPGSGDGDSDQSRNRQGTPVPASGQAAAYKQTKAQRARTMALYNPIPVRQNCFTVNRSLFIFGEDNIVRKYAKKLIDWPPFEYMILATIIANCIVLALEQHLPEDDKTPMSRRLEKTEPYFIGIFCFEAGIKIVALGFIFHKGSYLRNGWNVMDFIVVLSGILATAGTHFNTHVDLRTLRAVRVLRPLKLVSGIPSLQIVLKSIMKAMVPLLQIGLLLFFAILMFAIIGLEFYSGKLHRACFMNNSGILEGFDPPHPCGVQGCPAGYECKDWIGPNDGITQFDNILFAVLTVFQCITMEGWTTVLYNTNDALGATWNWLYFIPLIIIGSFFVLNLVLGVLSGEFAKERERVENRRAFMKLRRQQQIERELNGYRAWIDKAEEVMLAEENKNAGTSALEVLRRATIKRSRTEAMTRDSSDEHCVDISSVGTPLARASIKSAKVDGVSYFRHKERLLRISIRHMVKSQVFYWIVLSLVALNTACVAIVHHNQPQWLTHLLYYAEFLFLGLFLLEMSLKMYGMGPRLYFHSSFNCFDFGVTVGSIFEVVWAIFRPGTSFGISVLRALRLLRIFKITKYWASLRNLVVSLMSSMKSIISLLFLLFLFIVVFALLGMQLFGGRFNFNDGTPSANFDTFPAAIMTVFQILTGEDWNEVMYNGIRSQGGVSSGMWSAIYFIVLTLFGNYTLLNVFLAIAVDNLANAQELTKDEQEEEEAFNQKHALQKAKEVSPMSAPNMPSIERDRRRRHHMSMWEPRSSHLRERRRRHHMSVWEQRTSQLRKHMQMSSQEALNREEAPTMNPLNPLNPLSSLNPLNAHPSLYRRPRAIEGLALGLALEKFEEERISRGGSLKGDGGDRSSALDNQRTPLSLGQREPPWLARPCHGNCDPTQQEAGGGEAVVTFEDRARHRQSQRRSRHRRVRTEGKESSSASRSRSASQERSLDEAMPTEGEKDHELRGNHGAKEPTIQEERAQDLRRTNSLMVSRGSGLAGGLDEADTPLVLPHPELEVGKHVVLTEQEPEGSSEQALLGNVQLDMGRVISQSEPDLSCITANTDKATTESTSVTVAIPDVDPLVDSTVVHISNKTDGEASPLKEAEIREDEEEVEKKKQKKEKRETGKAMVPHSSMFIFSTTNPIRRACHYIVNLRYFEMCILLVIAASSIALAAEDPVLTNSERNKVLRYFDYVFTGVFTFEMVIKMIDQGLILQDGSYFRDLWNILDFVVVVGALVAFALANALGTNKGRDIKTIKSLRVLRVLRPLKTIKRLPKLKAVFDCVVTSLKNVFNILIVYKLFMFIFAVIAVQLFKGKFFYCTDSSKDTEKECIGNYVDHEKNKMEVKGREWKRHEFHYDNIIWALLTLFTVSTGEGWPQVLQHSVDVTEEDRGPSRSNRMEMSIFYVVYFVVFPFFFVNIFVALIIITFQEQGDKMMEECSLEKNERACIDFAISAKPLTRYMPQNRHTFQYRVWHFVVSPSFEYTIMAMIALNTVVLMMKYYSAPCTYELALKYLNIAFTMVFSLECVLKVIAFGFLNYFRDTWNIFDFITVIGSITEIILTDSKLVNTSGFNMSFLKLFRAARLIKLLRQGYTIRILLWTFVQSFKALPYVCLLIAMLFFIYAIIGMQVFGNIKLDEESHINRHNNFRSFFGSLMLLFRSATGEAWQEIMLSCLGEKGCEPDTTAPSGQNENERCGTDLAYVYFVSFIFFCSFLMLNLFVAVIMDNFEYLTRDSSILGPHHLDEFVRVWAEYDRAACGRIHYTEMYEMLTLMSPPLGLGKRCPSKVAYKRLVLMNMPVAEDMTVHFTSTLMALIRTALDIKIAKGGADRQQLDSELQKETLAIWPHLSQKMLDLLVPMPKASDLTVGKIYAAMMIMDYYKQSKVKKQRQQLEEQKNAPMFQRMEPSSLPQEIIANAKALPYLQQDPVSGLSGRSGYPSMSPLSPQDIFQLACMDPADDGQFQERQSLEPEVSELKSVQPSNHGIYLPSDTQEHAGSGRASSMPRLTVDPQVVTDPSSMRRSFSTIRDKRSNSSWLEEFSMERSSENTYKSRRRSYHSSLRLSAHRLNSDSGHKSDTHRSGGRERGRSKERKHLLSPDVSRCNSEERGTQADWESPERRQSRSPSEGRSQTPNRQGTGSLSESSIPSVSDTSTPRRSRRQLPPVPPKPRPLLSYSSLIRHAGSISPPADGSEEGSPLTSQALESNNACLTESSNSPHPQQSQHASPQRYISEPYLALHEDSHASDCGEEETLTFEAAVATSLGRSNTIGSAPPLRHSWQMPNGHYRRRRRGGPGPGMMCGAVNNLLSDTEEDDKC
Chain of class E calcium channels (Q15878 whole entry): as above
Chain of class B voltage-gated calcium channel (human alpha-1B subunit) stably expressed in S3 cells (HEK 293) (human) (Q00975 whole entry): as the sequence (Q00975 whole entry, looked up) above

In the case of `CCCC[C@@H]1NC(=O)[C@H](CC(C)C)NC(=O)[C@H](CCCNC(=N)N)NC(=O)[C@H](CO)NC(=O)[C@@H]2CSSC[C@@H]3NC(=O)[C@H](CO)NC(=O)CNC(=O)[C@H]([C@@H](C)O)NC(=O)[C@H](CSSC[C@H](N)C(=O)N[C@@H](CCCCN)C(=O)NCC(=O)N[C@@H](CCCCN)C(=O)NCC(=O)N[C@@H](C)C(=O)N[C@@H](CCCCN)C(=O)N2)NC(=O)[C@H](CSSC[C@@H](C(N)=O)NC(=O)[C@H](CCCCN)NC(=O)CNC(=O)[C@H](CO)NC(=O)[C@H](CCCNC(=N)N)NC3=O)NC(=O)[C@H](CC(=O)O)NC(=O)[C@H](Cc2ccc(O)cc2)NC1=O` [SNX-194], the IC50 [1] is reported as 1 nM and the “inhibition of remaining transient depolarization evoked increase in internal calcium” value [1] is reported as “nearly completely inhibited”.

With `[Cd]` [cadmium] the “effect on class A (P/Q) barium current” value ([2]; concentration not given) was “completely blocked”.

Molecule HG-1 peptide has an IC50, block of peak inward calcium current, whole cell patch clamp of S-3 cells [3] of 800 nM.

In the case of “SNX-629: synthetic truncated HG-1 peptide corresponding to HG 1 (7-41), SEQ ID NO: 15 (CRYMFGGCSVNDDCCPRLGCHSLFSYCAWDLTFSD)”, the “concentration inhibiting class E channels relative to that of HG-1 in the same assay” value [4] is reported as “less than 20 times” and the “ED50 for the anticonvulsant effect” value (DBA/2 mice) is reported as “about 5 μg/mouse”.

For “hanatoxin (ECRYLFGGCKTTSDCCKHEGCKFRDKTCAWDFTFS; listed as Grammostola spatulata)”, the “class E calcium channel antagonist activity” value (class E calcium channels) was “neither of these peptides exhibits class E calcium channel antagonist activity”.

For “omega-Aga-IIIA (from UniProt P33034 1-76) (peptide)”, the apparent IC50, depolarization evoked calcium signal at 60 seconds, INDO-1, GH3 cells (partial block) [5] was 1.5 nM.

B1: Aga-IIIA (peptide)
peptide: SCIDIGGDCDGEKDDCQCCRRNGYCSCYSLFGYLKSGCKCVVGTSAEFQGICRRKARQCYNSDPDKCESHNKPKRR
For B1, the IC50 ([1]; read-out: apparent IC50 for inhibition of depolarization evoked increase in internal calcium) was 0.1 nM and ~0.1 nM and the “effect on class A (P/Q) barium current” value ([2]; 60 nM) was “partially blocked”.
